Experimental data from the domain aggregation screens of Martell et al. (2025).

Assay: soluble fraction after stress (log2 fold change); higher = more stays soluble; pooled small domains, quantitative proteomics
Settings: stress: 75 degC
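Also: 20 min heating vs room temperature control held 20 min.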

Row | Sequence | soluble fraction (log2)
1 | HMEINKLIELIGGYKALSEVLNVSKSAISNYKKRGSLPSYAIPIIVKELKSKGISIDLSEFT | -0.837
2 | HMEISAIIGNNLQQLRKEQGLSLDQLALKTGVSKAVLSQLENGKANPTINTIWKIATALHVTYSALLEPP | -1.15
3 | HMEISEILNPPLVTAMAERYPEVDVSYYRDKYILYYESREHKITDHRRNFEKWLLVESQKEEN | -0.861
4 | HMEISTENESFSNGLLEHPHYTRPPVWEDLKIPAVLMSGHHGKVAEWRKQQSEALTQERRPDLWEAFG | -0.14
5 | HMEITSSNELKKMISNLINSENKNNPISDSNIVEKLKENDFLVARRTVAKYRKLLGIKNVNQRKE | -0.359
6 | HMEIYELTDQEQRVLEFIGEGMTNREIAKNMFLAEKTVKNYVSSLLRKLGLERRTQAAAMAVRLSV | -0.119
7 | HMEKAYVWTDTRTFDVQNYIGKKKSEVKNDQYGFEFLGEGDYVIDQLPRVGEQIEEGQKVKIMLGNQQEI | 0.178
8 | HMEKDKGTILKEARIKKGLTQEQLANNINYTRQYISKWENNISLPKDIQTLKKISNLLSIPLKELLPEDYL | -0.442
9 | HMEKEFLFNGGKVVMNYEADRIQIMHDTKPGQDVITLMKKNGFKWSPFNKAWQRQITANAIYTTKHLINQ | -1.71
10 | HMEKGIVSNKTDKGYGFIRSSTGESIFVHINNVGKEAYEQLAKGSRVLFDYEVTDRGKRATKVMLEPSES | -0.196
11 | HMEKGLQYRRTDRAIMNAFIKLVNQGSFEKLTVQEILDEALVSRNTFYAHYRDIYDLMDALSN | -1.52
12 | HMEKIDEDIMDVLKKKAEVSGISLGVLKSIYEKAVKQYKLGHEIGQVKEQYAMQKVNTHLLENK | 0.461
13 | HMEKIDYLSIGHRLRAYRIASSLKAEDVAESLGISRAAVYRLEKGEIVKIETLDNLARLLNTSLSSLLG | -3.37
14 | HMEKIKNLTVTEFNLIANKNPSGSYDRITREALLHIIHKLESSYEAHTDLERKLFYKFRKAKFNAL | -2.87
15 | HMEKIYLISDAAKQVNVEAHVLRYWEEELDIPAKRNELGHRYYTQEDIETFRKVKELKAQGIQLKGIKNIL | -0.225
16 | HMEKLLTTRQSQIFELAKRKGYWNIPREISITQLAQLTGSSKSTISVMLHAIESKIVDTFYDEI | -3.05
17 | HMEKLNERLLYLRKNANLTQQQLADKLHISNKTISQWETGRTLPDIVMLVRLAEIYDMKLDELLNQ | -1.1
18 | HMEKMLENIDLKAAVEALPEREKKVILLRYYRGMTQDAAAKVMKVSQVQISRIEKRAIEILREKL | -2.54
19 | HMEKNKERIAFLKKRLEMYYEAEEKILQGQSYTIGSRTLTRTSLANVQSKIKELESEISALETRGN | -1.5
20 | HMEKRIIMLEELKKQVYEANMELPRRGLITYTWGNVSGIDRESGNFVIKPSGVDYDKLKPEDMVVMDL | 0.249
21 | HMEKRRQEIVELVKRESEISFAELKQHFPEVSEVTLRKDLKYLDSTLQIIRIHGGAKSLPAAI | -0.965
22 | HMEKTTTLFDETTNPGIIYIGKAMPTGSAISEAAAVWAIKTIDTTTDTEIKWADGVTTYTKVWNNRASYSY | -0.872
23 | HMEKVDAISQSILDVLKKNNGYLAVTDKSDPDEIYGLFQISKKTFKKAIGSLYRDRLISIEEEGIRLR | -0.496
24 | HMEKVTAPMPGVINSIVKNVGDTVKRGDVVLILEAMKMENEIVAPKEGKIASINVAKGASVNAGDVLFSI | 0.347
25 | HMEKVTPEMIAEYNALAKKYNSNPEVVFKKKEIQRLKYIYSLMSEKQKETAEVFPNIPPPPPT | 0.162
26 | HMEKYNIIVDNEDNFRLDKIIALNMKDLSRTMIQEMINRGLVSVNGKITKASYKTKLNDQIEIMIED | -0.599
27 | HMELAALKILNSPIGKIAIGTSENGLVKLDILTSGQTRAEFSDLPKAHKLALDAADQLAAYF | 0.147
28 | HMELADNFAKLILTARESKGWTQAQLGQRMAETINVIKSAESGKPPADSVIRKFEMILGIELM | -2.06

Row | Sequence | soluble fraction (log2)
29 | HMELDFLRLQIITGIHSGRLSNNEILMMYDTYSQKGGNSYVSRIVNDYVDENNIKEEGKRNARK | -1.5
30 | HMELDREALSDGLRRLSQLLAEDDIESRTLFRELAPGLKEQLGDDAVEKLAGHISRYEFEQAGALLATSG | -0.0504
31 | HMELIELTVTEEFEMARLDQFLAGHLTQSRTYIQKLIKAGQITINGNLITRVKVPVHYGDFILINIPDPE | -3.68
32 | HMELKFIGEAVNNPKRPLIAILGGAKVSDKIGVIENLLTKADKILIGGAMMFTFLKAEGKNIGTSLVED | 0.0754
33 | HMELLEVSVIIREADSTGWSAARQGMEQAAADLGAELRFLTLSQSNSAEEQRSLLAREVEGGADAVVLV | -0.57
34 | HMELNEMEAWSLVSKALRNGTYGAVEEFSRLPPTVQEAVGNPDNLRNWATSDYKAIETVIQSNFIKTY | -0.0842
35 | HMELNILELKSKERKISLEDHLYIKSFNFDNETNEYFYRLAFNSSKDLKNFKATINNDKTISIINFEI | -3.67
36 | HMELPVNSIRVPDVVGLSLREAMQAMTDAGVPWQSVQAKGVGFVSRQSPEAGTVTQLRRVRLELKLF | -2.8
37 | HMELSPVDLGERLKIARETANFTQDAAAKAVGIARTTLVSIEKGQRTARLDEIQALSRFYGVSANALLR | -1.16
38 | HMELTDRQKQIIEIVKKQQPISGEKIASILGFARATLRPDFSLLTMSGILQAKPKVGYLINEE | -0.63
39 | HMELVEVGDLTGLTVEQAENVLKNSNISISIDKYDESDKYEKDQIISQNPQNKKVKKGTAIHVVLSNGP | 0.527
40 | HMEMKMGHIISKLRYESGYSQVELAEKIGITKGAVGMYETDKRKPDYDTLIKLADLFNVSTDYLLS | -0.378
41 | HMEMNDFETLRDMYLTGKIWNVGDIVEANGVRGKVIRKGTNYLSFVDEDNKVHKAWLYDIEE | 0.291
42 | HMEMSLGEKLKQARLTKNFSQEYMAEVLQISQKTYSNFENNKTKPDFSQIEEISKVLETSILEFLT | -1.12
43 | HMEMTGAHLRKKIRAKGFTFQQIADAIGESKQNLSQILSTNNIKTGTLERIAAAMGESVSYF | -0.00766
44 | HMENDYTQAQFVQDLDSGVVREVIIIPNREAPTGYARVVFGDVVRELYATDIREVEALAREHGYEPTVED | 0.343
45 | HMENFDNIFDQRLMPSLFIIRNINQAIENNNNNKFLLNSTISMKDKHWIEIHPHHLKLIISGYQT | -0.328
46 | HMENIEVDFGVGDTVSVIGGAWKDTVGVVQAMNPNKQSLTINVELFGRETPVEISFTDVQKM | -0.166
47 | HMENINIRNMGIRAVEAAIISLSPDQRTFTWGATNKKLVTVPYEENPYSALAAFFKTDDGIEIYDAIEKRL | -1.08
48 | HMENNNIAFSKFLEEVDSGRVVQVEIQGNNISGTLSDGSKFKTYSPNYPDLVSKLSEKNVSIIASPV | 0.343
49 | HMENPLVEVVVPVLNEERILKANIETLHHFLRTQPGFNFRITIADNGSTDKTQAIANDLTNSHAVIRV | -0.151
50 | HMENPMIEQLKQFIEAQGLTQGQLAAKLGVSTATVNQYLQGKYKGDTAALDAKAAQLMARSREK | 0.169
51 | HMENRILIPTAENIGERLDRYISSELDAPRSQVQIWIDSGLVAVSGGLKPKNYRLREGDEIEVTIPDPV | -0.11
52 | HMENRLREVRDEIATRHGILPTVFINDRVLMNIHSKKPKDVSQLWQVDGISDEFIMKYGPEFIAEYKKKAK | -0.119
53 | HMENRREYQKAIDYLSDQIRAGTLTVGSRLPTERAIAEALGISRNSTREALRTMENMGMIESKQGSGHYLT | -0.215
54 | HMENTELIELRKKRNLSQSQLAELLDLTRNQIANYESGRRIPDQETKQIIAGFFEMPAEEIFAG | -0.086
55 | HMENTFNENLRRIRKEKKITQEQLAEFVGVSPQAVSKWEMNSFPDASLLPKIAEKLEVSIDELFGLK | 0.205
